# Legend:
# [1] = biological target: WNV E ectodomain (residues 1-404) of the New York 1999 strain, expressed in E. coli and refolded (West Nile virus, New York 1999 strain) (UniProt Q9Q6P4); experiment: SPR
# [2] = biological target: WNV DIII (residues 296-404) of the New York 1999 strain, expressed in E. coli and refolded (West Nile virus, New York 1999 strain) (UniProt Q9Q6P4); experiment: SPR
Substance,Kd [1] [nM],Kd [2] [nM]
mHu-E16 (humanized E16 monoclonal antibody produced in CHO cells),45,32
"pHu-E16 (plant-produced humanized E16 monoclonal antibody, made in N. benthamiana)",46,41

# From US20120329994A1
